Legend:
[1] = substrate: CC(C)C[C@H](NC(=O)[C@H](C)NC(=O)[C@H](C)NC(=O)CCC(=O)O)C(=O)Nc1ccc([N+](=O)[O-])cc1; assay: Kinetic parameters of hydrolysis of Suc-Ala-Ala-Leu-NH-Np (Lineweaver-Burk); assay type: biochemical, bovine; settings: other: (S) range 0.04-4.0 mM, 10 mM CaCl2, pH 7.5, 25° C., enzyme 2.2×10^-9 M
Description: (§1) Neutral endopeptidase and neutral proteinase activities were assayed by the two-stage assay using the synthetic substrate Suc-Ala-Ala-Leu-NH-Np supplemented with Streptomyces griseus aminopeptidase, usually 6-7 μg/ml. Assays were performed in 0.1M NaCl-0.05M Tris.HCl, pH 7.5 at 25° C., unless otherwise stated, with or without 0.01M CaCl2. Assay volume was 1 ml or 2.5 ml when using a Varian Techtron spectrophotometer or 0.2 ml at 23° C. when performed with microplates (Munc Immuno Plate II F) using a Kinetic Microplate Reader (Molecular Devices Corp.). Activity was measured by following the increase in absorbance at 405 nm, due to the release of 4-nitroaniline, E405 =10,600M^-1 cm^-1 [14 ]. Molar concentration of thermolysin was estimated using A280 1% =17.65 [15] and molecular mass of 34,600 Da; molar concentration of bovine kidney neutral endopeptidase by protein determination and molecular mass of 90 kDa, deduced from SDS PAGE. Both endopeptidase 24.11 from bovine kidney and thermolysin cleave the Ala-Leu bond of the compound at a very fast rate (Table 3). […]
(§2) Reactions were carried out in the presence of 10 mM CaCl2 at pH 7.5, 25° C. […] Values of kcat and Km were determined by Lineweaver-Burk plots.

[2] = substrate: CC(C)C[C@H](NC(=O)[C@H](C)NC(=O)[C@H](C)NC(=O)CCC(=O)O)C(=O)Nc1ccc([N+](=O)[O-])cc1; assay: as above; assay type: biochemical; settings: other: (S) range 0.4-4.0 mM, 10 mM CaCl2, pH 7.5, 25° C., enzyme 3.0×10^-10 M
Description: as §1, with “3). The Leu residue of the substrate interacts with the major hydrophobic specificity sites of the enzymes (S'1), whereas the two Ala residues interact with additional subsites (S1, S2), thereby contributing to catalysis and/or binding. Even the 4-nitroaniline leaving group probably interacts with the enzyme at subsite S'2. Previously reported assays of endopeptidase 24.11 usually utilized a hydrophobic Phe residue, but Leu seems preferable in reaching higher kcat values. The rapid hydrolysis of the Leu residue is also preferable for the present two-stage assay utilizing Steptomyces aminopeptidase, since this enzyme very rapidly hydrolyzes the product of the endopeptidase attack, Leu-NH-Np.” for “3).”
as §2

| Protein | Km [1] | kcat [1] | Km [2] | kcat [2] | kcat/Km [2] |
| --- | --- | --- | --- | --- | --- |
| bovine kidney neutral endopeptidase 24.11 (Bos taurus) (protein, Endopeptidase 24.11 from bovine kidney was purified by Triton X-100 extraction; from tissue; host or cells: bovine kidney) MGRSESQMDITDINTPKPKKKQRWTPLEISLSVLVLLLTIIAVTMIALYATYDDGICKSSECIKSAARLIQNMDATVEPCTDFFKYACGGWLKRNVIPETSSRYSNFDILRDELEVVLKDVLQEPKTEDIIAVQKAKMLYRSCINETAIESRGGEPLLRLLPDIYDWPVALENWEQKYGSSWTAEKSIAQLNSKYGKKVIINFFVGTDDKNSTNHIIHIDQPQLGLPSRDYYECTAAYKEACTAYVDFMISVAKLIRQERGLPIDENQLSLEMNKVMDLEKEIANATTKSEDRNDPMLLYNKMTLAEVQNKFSLEFSGKPFSWSNFTNEIMSTVNINIPHEEEVIVYAPEYLTNLKLILAKYSARDLQNLMSWRFIMDLVSSLSRNYKESRNAFRKALYGTTSETATWRRCANYVNGNMENAVGRLYVEAAFPGDSKHVVEDLIAQIRAVFIQTLDDLTWMDAETKKKAEEKALAIKERIGYPDDIISNDDKLNKEYLELSYQEEEYFENIIQNLKFGQNRQLKKLREKVDKDEWISGAAVVNAFYSSGRNQIVFPAGILQPPFFSAQQPKSLNYGGIGMVIGHEITHGFDDNGRNFNKDGDLVDWWTQQSANNFKDLSQCMVYQYGNFSWDLANGQHLNGINTLGENIADNGGIGQAYRAYQNYVKKHGEEKLLPGLDLNHRQLFFLNFAQVWCGTYRTEYALNSIKTDVHSPGNFRIIGTLQNSPQFSEAFHCRKNSYMNPEKKCRVW | 150 µM | 120 s⁻¹ | – | – | – |
| Thermolysin (Bacillus thermoproteolyticus) (protein) ITGTSTVGVGRGVLGDQKNINTTYSTYYYLQDNTRGNGIFTYDAKYRTTLPGSLWADADNQFFASYDAPAVDAHYYAGVTYDYYKNVHNRLSYDGNNAAIRSSVHYSQGYNNAFWNGSQMVYGDGDGQTFIPLSGGIDVVAHELTHAVTDYTAGLIYQNESGAINEAISDIFGTLVEFYANKNPDWEIGEDVYTPGISGDSLRSMSDPAKYGDPDHYSKRYTGTQDNGGVHINSGIINKAAYLISQGGTHYGVSVVGIGRDKLGKIFYRALTQYLTPTSNFSQLRAAAVQSATDLYGSTSQEVASVKQAFDAVGVK | – | – | 4200 µM | 1200 s⁻¹ | 0.29 M^-1 s^-1 × 10^-6 |

From patent publication US5143839A, “Assay of endopeptidases and novel purified bacterial enzyme” (Ramot Ltd., priority 1989, dated 1992)
